Test results: patent US20210346432A1 (Memorial Sloan Kettering, published 2021)
No end group written: not given here. *: point of attachment. Biotin = O=C1N[C@H]2[C@H](CS[C@H]2CCCCC(=O)*)N1

T1: ET140-p14 (human, cysteine pairing not given here)
T1 construct: also called peptide 14
T1 peptide: Biotin-SGSGDSLLHACIPCQLRCS

T2: ET140-p30 (human, cysteine pairing not given here)
T2 construct: also called peptide 30
T2 peptide: Biotin-SGSGNTPPLTCQRYCNASV

T3: ET140-p38 (human)
T3 construct: also called peptide 38
T3 peptide: Biotin-SGSGRYCNASVTNSVKGTN

T4: ET140-p27 (human, cysteine pairing not given here)
T4 construct: also called peptide 27
T4 peptide: Biotin-SGSGCSSNTPPLTCQRYCN

T5: ET140-p37 (human)
T5 construct: also called peptide 37
T5 peptide: Biotin-SGSGQRYCNASVTNSVKGT

T6: ET140-p34 (human, cysteine pairing not given here)
T6 construct: also called peptide 34
T6 peptide: Biotin-SGSGLTCQRYCNASVTNSV

T7: ET140-p7 (human, cysteine pairing not given here)
T7 construct: also called peptide 7
T7 peptide: Biotin-SGSGCSQNEYFDSLLHACI

T8: ET140-p3 (human)
T8 construct: also called peptide 3
T8 peptide: Biotin-SGSGMAGQCSQNEYFDSLL

T9: ET140-p9 (human, cysteine pairing not given here)
T9 construct: also called peptide 9
T9 peptide: Biotin-SGSGQNEYFDSLLHACIPC

T10: ET140-p26 (human, cysteine pairing not given here)
T10 construct: also called peptide 26
T10 peptide: Biotin-SGSGRCSSNTPPLTCQRYC

T11: ET140-p35 (human, cysteine pairing not given here)
T11 construct: also called peptide 35
T11 peptide: Biotin-SGSGTCQRYCNASVTNSVK

T12: ET140-p28 (human, cysteine pairing not given here)
T12 construct: also called peptide 28
T12 peptide: Biotin-SGSGSSNTPPLTCQRYCNA

T13: ET140-p25 (human, cysteine pairing not given here)
T13 construct: also called peptide 25
T13 peptide: Biotin-SGSGLRCSSNTPPLTCQRY

T14: biotinylated BCMA-Fc protein (human, UniProt Q02223 1-54, biotinylated (site not stated))
T14 construct: also called BCMA recombinant antigen; not shown: Fc part
T14 sequence: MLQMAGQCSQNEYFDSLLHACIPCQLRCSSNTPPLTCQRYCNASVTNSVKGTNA

T15: ET140-p33 (human, cysteine pairing not given here)
T15 construct: also called peptide 33
T15 peptide: Biotin-SGSGPLTCQRYCNASVTNS

T16: ET140-p23 (human, cysteine pairing not given here)
T16 construct: also called peptide 23
T16 peptide: Biotin-SGSGCQLRCSSNTPPLTCQ

T17: ET140-p18 (human, cysteine pairing not given here)
T17 construct: also called peptide 18
T17 peptide: Biotin-SGSGHACIPCQLRCSSNTP

T18: ET140-p8 (human)
T18 construct: also called peptide 8
T18 peptide: Biotin-SGSGSQNEYFDSLLHACIP

T19: ET140-p22 (human, cysteine pairing not given here)
T19 construct: also called peptide 22
T19 peptide: Biotin-SGSGPCQLRCSSNTPPLTC

T20: ET140-p16 (human, cysteine pairing not given here)
T20 construct: also called peptide 16
T20 peptide: Biotin-SGSGLLHACIPCQLRCSSN

T21: ET140-p32 (human, cysteine pairing not given here)
T21 construct: also called peptide 32
T21 peptide: Biotin-SGSGPPLTCQRYCNASVTN

T22: ET140-p4 (human)
T22 construct: also called peptide 4
T22 peptide: Biotin-SGSGAGQCSQNEYFDSLLH

T23: ET140-p31 (human, cysteine pairing not given here)
T23 construct: also called peptide 31
T23 peptide: Biotin-SGSGTPPLTCQRYCNASVT

T24: ET140-p36 (human, cysteine pairing not given here)
T24 construct: also called peptide 36
T24 peptide: Biotin-SGSGCQRYCNASVTNSVKG

T25: ET140-p2 (human)
T25 construct: also called peptide 2
T25 peptide: Biotin-SGSGQMAGQCSQNEYFDSL

B1: ET140-174 mIgG1 (antibody, V domains shown)
VH: EVQLVQSGAEVKKPGESLKISCKGSGYSFTSYWIGWVRQMPGKGLEWMGIIYPGDSDTRYSPSFQGHVTISADKSISTAYLQWSSLKASDTAMYYCARYSGSFDNWGQGTLVTVSS
VL: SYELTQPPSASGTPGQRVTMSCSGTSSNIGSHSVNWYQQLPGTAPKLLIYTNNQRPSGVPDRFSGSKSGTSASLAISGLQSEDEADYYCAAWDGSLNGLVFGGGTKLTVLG
notes: also called ET140-24 mIgG1; ET140-24
B2: ET140-204 mIgG1 (antibody, V domains shown)
VH: EVQLVQSGAEMKKPGASLKLSCKASGYTFIDYYVYWMRQAPGQGLESMGWINPNSGGTNYAQKFQGRVTMTRDTSISTAYMELSRLRSDDTAMYYCARSQRDGYMDYWGQGTLVTVSS
VL: QSALTQPASVSASPGQSIAISCTGTSSDVGWYQQHPGKAPKLMIYEDSKRPSGVSNRFSGSKSGNTASLTISGLQAEDEADYYCSSNTRSSTLVFGGGTKLTVLG
notes: also called ET140-54 mIgG1; ET140-54
B3: ET140-153 mIgG1 (antibody, V domains shown)
VH: QVQLVQSGAEVKKPGSSVKVSCKASGGTFSSYAISWVRQAPGQGLEWMGRIIPILGIANYAQKFQGRVTITADKSTSTAYMELSSLRSEDTAVYYCARGGYYSHDMWSEDWGQGTLVTVSS
VL: LPVLTQPPSASGTPGQRVTISCSGRSSNIGSNSVNWYRQLPGAAPKLLIYSNNQRPPGVPVRFSGSKSGTSASLAISGLQSEDEATYYCATWDDNLNVHYVFGTGTKVTVLG
notes: also called ET140-3 mIgG1; ET140-3

What was measured:
ET140-p14 = target: T1, ET140-p14; assay: peptide ELISA on streptavidin plate, antibody 1 ug/mL
Description: (§1) The peptides were coated onto Streptavidin plates at 2 ug/mL in PBST (PBS+0.05% Tween-20). After washing and blocking with 3% BSA. […] “mIgG1” used in all Examples represents that the variable region is fully human and the Fc part is mouse IgG1. Then HRP anti-mouse IgG detection antibody was added to each well. Finally, the color was developed using TMB substrate. A450 was recorded for data analysis.

ET140-p30 = target: T2, ET140-p30; assay: as above
Description: as §1

ET140-p38 = target: T3, ET140-p38; assay: as above
Description: as §1

ET140-p27 = target: T4, ET140-p27; assay: as above
Description: as §1

ET140-p37 = target: T5, ET140-p37; assay: as above
Description: as §1

ET140-p34 = target: T6, ET140-p34; assay: as above
Description: as §1

ET140-p7 = target: T7, ET140-p7; assay: as above
Description: as §1

ET140-p3 = target: T8, ET140-p3; assay: as above
Description: as §1

ET140-p9 = target: T9, ET140-p9; assay: as above
Description: as §1

ET140-p26 = target: T10, ET140-p26; assay: as above
Description: as §1

ET140-p35 [1] = target: T11, ET140-p35; assay: as above
Description: as §1

ET140-p28 = target: T12, ET140-p28; assay: as above
Description: as §1

ET140-p25 = target: T13, ET140-p25; assay: as above
Description: as §1

[2] = target: T14, biotinylated BCMA-Fc protein; assay: SPR (BIAcore X100), biotinylated BCMA-Fc captured on Sensor Chip CAP, antibody injected, 1:1 Langmuir fit
Description: In brief, 50 μg/mL of modified streptavidin was immobilized onto a Sensor Chip CAP by flowing the Biotin CAPture Reagent through the flow cells at 2 μL/min for 5 minutes. 10 ug/mL biotinylated BCMA-Fc protein was loaded onto the flow cell at a rate of 30 μL/min for 3 minutes. Following the standard protocol for kinetics, a series of injection of ESK1 was performed between 0.6 and 15 μg/mL, each step consisting of a 3 minute injection at 30 μL/min and 3 minute disassociation. […] Kinetic constants were derived by the global fitting (1:1 Langmuir binding model) using BIAcore ×100 Evaluation Software (Version 2.0.1).

ET140-p33 = target: T15, ET140-p33; assay: peptide ELISA, biotin peptide on streptavidin plate
Description: as §1

ET140-p23 = target: T16, ET140-p23; assay: as above
Description: as §1

ET140-p18 = target: T17, ET140-p18; assay: as above
Description: as §1

ET140-p8 = target: T18, ET140-p8; assay: as above
Description: as §1

ET140-p22 = target: T19, ET140-p22; assay: as above
Description: as §1

ET140-p16 = target: T20, ET140-p16; assay: as above
Description: as §1

ET140-p32 = target: T21, ET140-p32; assay: as above
Description: as §1

ET140-p4 = target: T22, ET140-p4; assay: as above
Description: as §1

ET140-p31 = target: T23, ET140-p31; assay: as above
Description: as §1

ET140-p36 = target: T24, ET140-p36; assay: as above
Description: as §1

ET140-p2 = target: T25, ET140-p2; assay: as above
Description: as §1

ET140-p35 [3] = target: T11, ET140-p35; assay: as above
Description: as §1

Row | A450 (ET140-p14) | A450 (ET140-p30) | A450 (ET140-p38) | A450 (ET140-p27) | A450 (ET140-p37) | A450 (ET140-p34) | A450 (ET140-p7) | A450 (ET140-p3) | A450 (ET140-p9) | A450 (ET140-p26) | A450 (ET140-p35 [1]) | A450 (ET140-p28) | A450 (ET140-p25) | Kd [2] [nM] | binding result (ET140-p33) | binding result (ET140-p23) | binding result (ET140-p18) | binding result (ET140-p8) | binding result (ET140-p22) | binding result (ET140-p16) | also measured | Binder
1 | 0.105 | 0.083 | 0.071 | 0.1 | 0.086 | 0.069 | 0.087 | 0.08 | 0.104 | 0.212 | 0.076 | 0.101 | 0.537 | 4.8 | no binding (tested: 1 ug/mL) | no binding (tested: 1 ug/mL) | no binding (tested: 1 ug/mL) | no binding (tested: 1 ug/mL) | no binding (tested: 1 ug/mL) | no binding (tested: 1 ug/mL) | binding result (ET140-p32): no binding (tested: 1 ug/mL); binding result (ET140-p4): no binding (tested: 1 ug/mL); binding result (ET140-p31): no binding (tested: 1 ug/mL); binding result (ET140-p36): no binding (tested: 1 ug/mL); binding result (ET140-p2): no binding (tested: 1 ug/mL); binding result (ET140-p35 [3]): no binding (tested: 1 ug/mL) | B1
2 | 0.104 | 0.08 | 0.069 | 0.103 | 0.083 | 0.07 | 0.075 | 0.083 | 0.087 | 0.2 | 0.071 | 0.093 | 0.494 | 8.1 | no binding (tested: 1 ug/mL) | no binding (tested: 1 ug/mL) | no binding (tested: 1 ug/mL) | no binding (tested: 1 ug/mL) | no binding (tested: 1 ug/mL) | no binding (tested: 1 ug/mL) | binding result (ET140-p32): no binding (tested: 1 ug/mL); binding result (ET140-p4): no binding (tested: 1 ug/mL); binding result (ET140-p31): no binding (tested: 1 ug/mL); binding result (ET140-p36): no binding (tested: 1 ug/mL); binding result (ET140-p2): no binding (tested: 1 ug/mL); binding result (ET140-p35 [3]): no binding (tested: 1 ug/mL) | B2
3 | 0.124 | 0.111 | 0.08 | 0.12 | 0.085 | 0.099 | 0.381 | 0.086 | 2.25 | – | 0.072 | 0.109 | – | 1.2 | – | – | – | – | – | – | – | B3
